Results: article PMC5871715
Like-named read-outs stand apart in the source and are kept apart here.

Legend:
Netrin-1 (Homo sapiens) [1] = biological target: Netrin-1 (Homo sapiens) (UniProt O95631); details: cited from earlier work
Netrin-1 (Homo sapiens) [2] = biological target: Netrin-1 (Homo sapiens) (UniProt O95631); details: cited from earlier work; remark: listed apart in the source
[3] = biological target: full-length wild-type rat DCC on the cell surface (UniProt Q63155); assay: cell-binding assay; details: n = 100 for each group; parent: est. 49; read off a plot
Chain of full-length wild-type rat DCC on the cell surface (Q63155 26-1445): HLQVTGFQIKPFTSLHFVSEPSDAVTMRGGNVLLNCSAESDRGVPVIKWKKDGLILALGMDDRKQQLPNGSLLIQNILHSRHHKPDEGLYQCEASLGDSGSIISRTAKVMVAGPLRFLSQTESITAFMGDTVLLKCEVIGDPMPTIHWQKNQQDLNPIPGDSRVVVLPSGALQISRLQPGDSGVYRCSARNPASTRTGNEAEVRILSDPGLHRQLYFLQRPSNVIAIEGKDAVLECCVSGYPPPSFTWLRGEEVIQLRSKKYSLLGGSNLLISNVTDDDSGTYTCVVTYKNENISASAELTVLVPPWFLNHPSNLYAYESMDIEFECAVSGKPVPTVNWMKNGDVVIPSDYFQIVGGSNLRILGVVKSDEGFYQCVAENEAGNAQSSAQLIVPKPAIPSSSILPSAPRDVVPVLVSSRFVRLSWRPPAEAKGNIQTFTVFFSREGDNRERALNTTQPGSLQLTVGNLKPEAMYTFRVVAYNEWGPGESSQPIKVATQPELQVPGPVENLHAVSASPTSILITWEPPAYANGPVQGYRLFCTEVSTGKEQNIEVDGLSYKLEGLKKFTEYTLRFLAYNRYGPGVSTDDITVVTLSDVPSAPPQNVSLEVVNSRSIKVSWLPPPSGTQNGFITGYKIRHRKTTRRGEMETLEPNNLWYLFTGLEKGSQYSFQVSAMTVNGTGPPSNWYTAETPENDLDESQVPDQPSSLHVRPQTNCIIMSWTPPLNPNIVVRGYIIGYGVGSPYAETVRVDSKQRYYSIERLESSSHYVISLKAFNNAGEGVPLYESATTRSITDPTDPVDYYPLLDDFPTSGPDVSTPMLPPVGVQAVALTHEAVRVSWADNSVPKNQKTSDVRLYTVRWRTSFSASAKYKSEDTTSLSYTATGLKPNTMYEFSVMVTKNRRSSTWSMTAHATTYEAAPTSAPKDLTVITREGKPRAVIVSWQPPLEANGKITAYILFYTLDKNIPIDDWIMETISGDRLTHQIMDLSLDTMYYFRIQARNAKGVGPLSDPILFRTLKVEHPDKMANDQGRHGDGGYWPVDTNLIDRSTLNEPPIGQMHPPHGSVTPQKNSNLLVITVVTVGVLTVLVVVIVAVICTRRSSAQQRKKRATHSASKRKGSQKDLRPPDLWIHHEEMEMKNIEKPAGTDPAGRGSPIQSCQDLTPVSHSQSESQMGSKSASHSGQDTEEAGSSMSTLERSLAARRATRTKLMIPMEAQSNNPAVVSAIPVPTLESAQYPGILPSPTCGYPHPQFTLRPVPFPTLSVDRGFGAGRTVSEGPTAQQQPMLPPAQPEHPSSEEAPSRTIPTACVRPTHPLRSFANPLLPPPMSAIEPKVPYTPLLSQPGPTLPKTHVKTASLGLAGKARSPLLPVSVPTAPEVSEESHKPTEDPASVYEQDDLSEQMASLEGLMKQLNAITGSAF

Chain of DCC Fn5 (P43146 846-942): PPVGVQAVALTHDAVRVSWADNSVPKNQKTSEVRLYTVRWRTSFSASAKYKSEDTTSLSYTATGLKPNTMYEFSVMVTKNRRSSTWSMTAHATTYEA

| response (% positive binding) [3] | Substance | also measured |
| --- | --- | --- |
| – | DCC Fn5 (from UniProt P43146) | Kd (Netrin-1 (Homo sapiens) [1]): 5 µM |
| – | Draxin (from UniProt Q8NBI3) | Kd (Netrin-1 (Homo sapiens) [2]): 10 nM |
| 59 | wild-type rDraxin-Flag R282A | – |
| 6 | wild-type rDraxin-Flag R282D | – |
| 3 | wild-type rDraxin-Flag R322A | – |
| 10 | wild-type rDraxin-Flag R322D | – |
